Source: patent US20250243262A1 (AstraZeneca / MedImmune, published 2025)

Target: PcrV on live P. aeruginosa (type III secretion system of the infecting bacteria) (Pseudomonas aeruginosa)
Assay: cell-based or functional assay

B1: V2L2 anti-PcrV monoclonal antibody (antibody, IgG1, V domains shown)
VH: EMQLLESGGGLVQPGGSLRLSCAASGFTFSSYAMNWVRQAPGEGLEWVSAITISGITAYYTDSVKGRFTISRDNSKNTLYLQMNSLRAGDTAVYYCAKEEFLPGTHYYYGMDVWGQGTTVTVSS
VL: AIQMTQSPSSLSASVGDRVTITCRASQGIRNDLGWYQQKPGKAPKLVIYSASTLQSGVPSRFSGSGSGTDFTLSISSLQPDDFATYYCLQDYNYPWTFGQGTKVEIK
  inhibition of cytotoxicity, IC50 against that of mAb166: 28 fold
  percent inhibition of cytotoxicity (lysis of A549 cells by P. aeruginosa 6077, LDH release), IC50: 0.1 µg/mL
  prevention of RBC lysis, IC50 against that of mAb166: 10 fold
  prevention of lysis of rabbit RBCs by P. aeruginosa 6077, IC50: 0.37 µg/mL
